{"source": "patent US20180244776A1"}
{"molecular_target": "T1, human Sema3A (human) (UniProt Q14563)", "T1 sequence (looked up)": "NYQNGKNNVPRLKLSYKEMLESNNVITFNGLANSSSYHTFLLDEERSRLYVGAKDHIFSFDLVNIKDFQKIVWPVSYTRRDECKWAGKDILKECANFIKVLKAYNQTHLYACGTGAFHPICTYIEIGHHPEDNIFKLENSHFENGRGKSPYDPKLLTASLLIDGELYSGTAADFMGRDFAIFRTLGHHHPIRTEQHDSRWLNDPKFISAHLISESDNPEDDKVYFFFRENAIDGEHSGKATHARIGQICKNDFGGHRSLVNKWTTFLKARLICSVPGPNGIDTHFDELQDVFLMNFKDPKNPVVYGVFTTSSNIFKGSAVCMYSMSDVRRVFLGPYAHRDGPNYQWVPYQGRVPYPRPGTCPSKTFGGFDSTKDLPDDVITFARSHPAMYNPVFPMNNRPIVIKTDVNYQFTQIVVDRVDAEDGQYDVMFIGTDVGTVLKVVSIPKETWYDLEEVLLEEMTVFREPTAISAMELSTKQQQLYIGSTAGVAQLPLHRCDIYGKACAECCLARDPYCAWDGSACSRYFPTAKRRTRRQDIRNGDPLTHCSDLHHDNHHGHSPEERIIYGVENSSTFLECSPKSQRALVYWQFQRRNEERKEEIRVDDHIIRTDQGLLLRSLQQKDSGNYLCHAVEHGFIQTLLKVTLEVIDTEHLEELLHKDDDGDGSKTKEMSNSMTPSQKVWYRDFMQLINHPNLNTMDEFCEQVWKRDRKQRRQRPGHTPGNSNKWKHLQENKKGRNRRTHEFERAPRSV", "assay": "cell-based or functional assay", "units": {"cell migration of patient-derived 83 cells (transwell)": "%", "cell migration of patient-derived 131 cells (transwell)": "%"}}
{"binder": "F11 anti-Sema3A scFv antibody fragment (scFv, part only; not given: linker and His/HA tags, V domains shown, not shown: another chain or arm of the molecule; large carriers; small tags and cut ends) VH: EVQLLESGGGLVQTGGSLRLSCAASGFTFSDYAMSWVRQAPGKGLEWVSWIYYDSGSKYYADSVKGRFTISRDNSKNTLYLQMNSLRAEDTAVYYCAKLNGDFDYWGQGTLVTVSS VL: QSVLTQPPSASGTPGQRVTISCSGSSSNIGNNDVSWYQQLPGTAPKLLIYADSHRPSGVPDRFSGSKSGTSASLAISGLRSEDEADYYCGAWDSSLSGYVFGGGTKLTVL", "cell migration of U87-MG cells (transwell, 50 ug/ml scFv)": "74 % of control", "cell migration of patient-derived 83 cells (transwell)": 28, "cell migration of patient-derived 131 cells (transwell)": 7}
{"binder": "A08 anti-Sema3A scFv antibody fragment (scFv, part only; not given: linker and His/HA tags, V domains shown, not shown: another chain or arm of the molecule; large carriers; small tags and cut ends) VH: EVQLLESGGGLVQPGGSLRLSCAASGFTFSDYAMSWVRQAPGKGLEWVSGIYYDDSSQYYADSVKGRFTISRDNSKNTLYLQMNSLRAEDTAVYYCAKNLGRFDYWGQGTLVTVSS VL: QSVLTQPPSASGTPGQRVTISCTGSSSNIGSNAVTWYQQLPGTAPKLLIYDDNHRPSGVPDRFSGSKSGTSASLAISGLRSEDEADYYCGAWDDSLSAYVFGGGTKLTVL", "cell migration of U87-MG cells (transwell, 50 ug/ml scFv)": "78 % of control", "cell migration of patient-derived 83 cells (transwell)": 21, "cell migration of patient-derived 131 cells (transwell)": 11}
{"binder": "C10 anti-Sema3A scFv antibody fragment (scFv, part only; not given: linker and His/HA tags, V domains shown, not shown: another chain or arm of the molecule; large carriers; small tags and cut ends) VH: EVQLLESGGGLVQPGGSLRLSCAASGFTFSDYAMSWVRQAPGKGLEWVSGIYYDDSSQYYADSVEGRFTISRDNSKNTLYLQMNSLRAEDTAVYYCARYLGLFDYWGQGTLVTVSS VL: QSVLTQPPSASGTPGQRVTISCSGSSSNIGNNSVNWYQQLPGTAPKLLIYSDSQRPSGVPDRFSGSKSGTSASLAISGLRSEDEADYYCGSWDYSLSAYVFGGGTKLTVL", "cell migration of U87-MG cells (transwell, 50 ug/ml scFv)": "70 % of control", "cell migration of patient-derived 83 cells (transwell)": 44, "cell migration of patient-derived 131 cells (transwell)": 19}
